Test results published in patent US20170368136A1 (REGENTS OF THE UNIVERSITY OF COLORADO A BODY CORPORATE, published 2017).

Target: CaMKII
Assay: cell-based or functional assay

Chain of CaMKII (chain, from a related filing, as listed by the source): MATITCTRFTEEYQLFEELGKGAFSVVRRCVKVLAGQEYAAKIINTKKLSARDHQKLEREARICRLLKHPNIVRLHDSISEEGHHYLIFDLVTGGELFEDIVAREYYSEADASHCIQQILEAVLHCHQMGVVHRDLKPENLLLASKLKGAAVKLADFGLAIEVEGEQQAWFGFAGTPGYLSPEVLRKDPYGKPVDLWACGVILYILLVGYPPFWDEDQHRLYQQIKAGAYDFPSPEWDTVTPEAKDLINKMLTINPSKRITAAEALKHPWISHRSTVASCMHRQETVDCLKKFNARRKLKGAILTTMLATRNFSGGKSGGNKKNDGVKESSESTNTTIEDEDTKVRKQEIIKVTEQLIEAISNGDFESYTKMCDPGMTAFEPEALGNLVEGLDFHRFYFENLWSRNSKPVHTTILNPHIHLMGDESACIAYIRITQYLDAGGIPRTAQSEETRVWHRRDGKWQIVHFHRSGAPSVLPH

**Q.** Which “fold reduction of potency of CaMKII inhibition against CN19” value does the source give for KRPPKLGQIGASKRVVIED [CN19 R11A] here?
**A.** > 3 fold

**Q.** For KRPPKLGQIGRSKRVVIEDD [CN20], which “IC50, phosphorylation of syntide 2 by CaMKII” value is on record?
**A.** ~100 nM

**Q.** KRAPKLGQIGRVKAVDIED [CN19a2v V16D] was tested. Which “IC50 of CaMKII inhibition” value did it give?
**A.** ~1 nM

**Q.** With KRAPKLGQIGRVKAVVIED [CN19a2v] as the binder, how does the “IC50 of CaMKII inhibition (syntide 2)” value read?
**A.** ~20 nM

**Q.** And the “fold potency of CaMKII inhibition against CN19” value?
**A.** ~5 fold

**Q.** Which “fold decrease of potency of CaMKII inhibition against CN19” value does the source give for KRPPKLGQIGRAKRVVIED [CN19 S12A] here?
**A.** > 3 fold

**Q.** What does the source list for KRAPKLGQIGRQKAVDIED [CN19o]?
**A.** IC50 of CaMKII inhibition (CaMKII activity assay, 0.1 nM CaMKII): ~0.75 nM; fold potency of CaMKII inhibition against CN19: > 125 fold

**Q.** KRAPKLGQIGRQKAVVIED [CN19a2v V12Q] was tested. Which “IC50 of CaMKII inhibition” value did it give?
**A.** ~1 nM

**Q.** KRPPKLGQIGRSKRVVIED [CN19] was tested. Which “IC50, phosphorylation of syntide 2 by CaMKII” value did it give?
**A.** ~100 nM

**Q.** Which “fold increase of potency of CaMKII inhibition against CN19 wild type” value does the source give for KRPPKLGQIGRSKAVVIED [CN19 R14A] here?
**A.** > 10 fold
